Laboratory results: paper PMC8655031, “Loss of peptidase D binding restores the tumor suppressor functions of oncogenic p53 mutants” (Communications Biology, 2021)

Experiments:
[1] = biological target: T1, recombinant human p53, N-terminal His tagged (human, UniProt P04637 1-393); test: cross-linking; PEPD (801 nM) and p53 or p53^R175H (114 nM), alone or together, in PBS pH 7.4 for 15 min at RT, then 2 mM BS3 for 30 min at RT; WB on 5% SDS-PAGE; conditions: both partners purified
T1 construct: human p53 from pET15b-His-human p53; also called His-human p53; source: E. coli BL21-AI, purified (Ni-NTA)

[2] = biological target: the molecule itself; test: as above

- stoichiometry N [1]: 1 PEPD dimer per p53 tetramer
B1: recombinant human PEPD (peptidase D), C-terminal His tagged (enzyme, UniProt P12955 1-493, looked up)
chain: MAAATGPSFWLGNETLKVPLALFALNRQRLCERLRKNPAVQAGSIVVLQGGEETQRYCTDTGVLFRQESFFHWAFGVTEPGCYGVIDVDTGKSTLFVPRLPASHATWMGKIHSKEHFKEKYAVDDVQYVDEIASVLTSQKPSVLLTLRGVNTDSGSVCREASFDGISKFEVNNTILHPEIVECRVFKTDMELEVLRYTNKISSEAHREVMKAVKVGMKEYELESLFEHYCYSRGGMRHSSYTCICGSGENSAVLHYGHAGAPNDRTIQNGDMCLFDMGGEYYCFASDITCSFPANGKFTADQKAVYEAVLRSSRAVMGAMKPGVWWPDMHRLADRIHLEELAHMGILSGSVDAMVQAHLGAVFMPHGLGHFLGIDVHDVGGYPEGVERIDEPGLRSLRTARHLQPGMVLTVEPGIYFIDHLLDEALADPARASFLNREVLQRFRGFGGVRIEEDVVVTDSGIELLTCVPRTVEEIEACMAGCDKAFTPFSGPK
notes: human peptidase D (PEPD, prolidase), from pBAD/TOPO-human PEPD-His; the discussion speaks of PEPD as 493 aa; also called prolidase; PEPD-His; source: E. coli One Shot TOP10, purified (Ni-NTA)
- stoichiometry N [2]: 2
